Experimental data reported in the MegaScale stability set (Tsuboyama et al. 2023).

B1: EEHEE_rd4_0469 (parent)
chain: ITIHVNGVTYHFDNPEEAEKFAQKMAKTYQLKMEIHNGEFHME

Variants of: B1
Experiment: folding stability dG (cDNA display proteolysis); higher = more stable
Settings: PBS, room temperature

Variant	folding stability dG
ITIHVNGVTYHFDNPESAEKFAQKMAKTYQLKMEIHNGEFHME	1.15 kcal/mol
ITIHVNGVTYHFDNPEAAEKFAQKMAKTYQLKMEIHNGEFHME	1.15 kcal/mol
ITIHVNGVTYHFDNPENAEKFAQKMAKTYQLKMEIHNGEFHME	0.912 kcal/mol
ITIHVNGVTYHFDNPEQAEKFAQKMAKTYQLKMEIHNGEFHME	1.03 kcal/mol
ITIHVNGVTYHFDNPERAEKFAQKMAKTYQLKMEIHNGEFHME	1.07 kcal/mol
ITIHVNGVTYHFDNPEMAEKFAQKMAKTYQLKMEIHNGEFHME	1.07 kcal/mol
ITIHVNGVTYHFDNPEVAEKFAQKMAKTYQLKMEIHNGEFHME	1.02 kcal/mol
ITIHVNGVTYHFDNPETAEKFAQKMAKTYQLKMEIHNGEFHME	1.07 kcal/mol
ITIHVNGVTYHFDNPEPAEKFAQKMAKTYQLKMEIHNGEFHME	0.444 kcal/mol
ITIHVNGVTYHFDNPEGAEKFAQKMAKTYQLKMEIHNGEFHME	0.714 kcal/mol
ITIHVNGVTYHFDNPEYAEKFAQKMAKTYQLKMEIHNGEFHME	0.867 kcal/mol
ITIHVNGVTYHFDNPELAEKFAQKMAKTYQLKMEIHNGEFHME	1.19 kcal/mol
ITIHVNGVTYHFDNPEDAEKFAQKMAKTYQLKMEIHNGEFHME	1.06 kcal/mol
ITIHVNGVTYHFDNPEIAEKFAQKMAKTYQLKMEIHNGEFHME	1.09 kcal/mol
ITIHVNGVTYHFDNPEKAEKFAQKMAKTYQLKMEIHNGEFHME	1.14 kcal/mol
ITIHVNGVTYHFDNPEFAEKFAQKMAKTYQLKMEIHNGEFHME	0.96 kcal/mol
ITIHVNGVTYHFDNPEHAEKFAQKMAKTYQLKMEIHNGEFHME	0.948 kcal/mol
ITIHVNGVTYHFDNPECAEKFAQKMAKTYQLKMEIHNGEFHME	1.81 kcal/mol
ITIHVNGVTYHFDNPEWAEKFAQKMAKTYQLKMEIHNGEFHME	1.01 kcal/mol
ITIHVNGVTYHFDNYEEAEKFAQKMAKTYQLKMEIHNGEFHME	1.36 kcal/mol

Variant	folding stability dG
ITIHVNGVTYHFDNSEEAEKFAQKMAKTYQLKMEIHNGEFHME	1.1 kcal/mol
ITIHVNGVTYHFDNDEEAEKFAQKMAKTYQLKMEIHNGEFHME	0.883 kcal/mol
ITIHVNGVTYHFDNNEEAEKFAQKMAKTYQLKMEIHNGEFHME	0.994 kcal/mol
ITIHVNGVTYHFDNAEEAEKFAQKMAKTYQLKMEIHNGEFHME	1.14 kcal/mol
ITIHVNGVTYHFDNQEEAEKFAQKMAKTYQLKMEIHNGEFHME	1.03 kcal/mol
ITIHVNGVTYHFDNFEEAEKFAQKMAKTYQLKMEIHNGEFHME	1.39 kcal/mol
ITIHVNGVTYHFDNTEEAEKFAQKMAKTYQLKMEIHNGEFHME	1.14 kcal/mol
ITIHVNGVTYHFDNHEEAEKFAQKMAKTYQLKMEIHNGEFHME	1.13 kcal/mol
ITIHVNGVTYHFDNEEEAEKFAQKMAKTYQLKMEIHNGEFHME	0.979 kcal/mol
ITIHVNGVTYHFDNIEEAEKFAQKMAKTYQLKMEIHNGEFHME	1.27 kcal/mol
ITIHVNGVTYHFDNLEEAEKFAQKMAKTYQLKMEIHNGEFHME	1.35 kcal/mol
ITIHVNGVTYHFDNGEEAEKFAQKMAKTYQLKMEIHNGEFHME	1.04 kcal/mol
ITIHVNGVTYHFDNREEAEKFAQKMAKTYQLKMEIHNGEFHME	1.34 kcal/mol
ITIHVNGVTYHFDNVEEAEKFAQKMAKTYQLKMEIHNGEFHME	1.21 kcal/mol
ITIHVNGVTYHFDNWEEAEKFAQKMAKTYQLKMEIHNGEFHME	1.53 kcal/mol
ITIHVNGVTYHFDNKEEAEKFAQKMAKTYQLKMEIHNGEFHME	1.17 kcal/mol
ITIHVNGVTYHFDNMEEAEKFAQKMAKTYQLKMEIHNGEFHME	1.5 kcal/mol
ITIHVNGVTYHFDNPEEAVKFAQKMAKTYQLKMEIHNGEFHME	1.47 kcal/mol
ITIHVNGVTYHFDNPEEAGKFAQKMAKTYQLKMEIHNGEFHME	1.03 kcal/mol
ITIHVNGVTYHFDNPEEAHKFAQKMAKTYQLKMEIHNGEFHME	1.38 kcal/mol

Variant	folding stability dG
ITIHVNGVTYHFDNPEEARKFAQKMAKTYQLKMEIHNGEFHME	1.41 kcal/mol
ITIHVNGVTYHFDNPEEANKFAQKMAKTYQLKMEIHNGEFHME	1.32 kcal/mol
ITIHVNGVTYHFDNPEEADKFAQKMAKTYQLKMEIHNGEFHME	1.07 kcal/mol
ITIHVNGVTYHFDNPEEAPKFAQKMAKTYQLKMEIHNGEFHME	-0.375 kcal/mol
ITIHVNGVTYHFDNPEEAAKFAQKMAKTYQLKMEIHNGEFHME	1.35 kcal/mol
ITIHVNGVTYHFDNPEEAIKFAQKMAKTYQLKMEIHNGEFHME	1.5 kcal/mol
ITIHVNGVTYHFDNPEEATKFAQKMAKTYQLKMEIHNGEFHME	1.3 kcal/mol
ITIHVNGVTYHFDNPEEASKFAQKMAKTYQLKMEIHNGEFHME	1.16 kcal/mol
ITIHVNGVTYHFDNPEEAFKFAQKMAKTYQLKMEIHNGEFHME	1.63 kcal/mol
ITIHVNGVTYHFDNPEEAQKFAQKMAKTYQLKMEIHNGEFHME	1.26 kcal/mol
ITIHVNGVTYHFDNPEEAKKFAQKMAKTYQLKMEIHNGEFHME	1.27 kcal/mol
ITIHVNGVTYHFDNPEEAMKFAQKMAKTYQLKMEIHNGEFHME	1.61 kcal/mol
ITIHVNGVTYHFDNPEEALKFAQKMAKTYQLKMEIHNGEFHME	1.61 kcal/mol
ITIHVNGVTYHFDNPEEAWKFAQKMAKTYQLKMEIHNGEFHME	1.82 kcal/mol
ITIHVNGVTYHFDNPEEAYKFAQKMAKTYQLKMEIHNGEFHME	1.6 kcal/mol
ITIHVNGVTYHFDKPEEAEKFAQKMAKTYQLKMEIHNGEFHME	1.1 kcal/mol
ITIHVNGVTYHFDQPEEAEKFAQKMAKTYQLKMEIHNGEFHME	1 kcal/mol
ITIHVNGVTYHFDPPEEAEKFAQKMAKTYQLKMEIHNGEFHME	0.129 kcal/mol
ITIHVNGVTYHFDIPEEAEKFAQKMAKTYQLKMEIHNGEFHME	1.22 kcal/mol
